# Source: patent US20200040059A1
# Experiments:
# [1] = biological target: T1, CD96 (UniProt P40200); experiment: flow cytometry on CD96-expressing cells
# T1 sequence (looked up): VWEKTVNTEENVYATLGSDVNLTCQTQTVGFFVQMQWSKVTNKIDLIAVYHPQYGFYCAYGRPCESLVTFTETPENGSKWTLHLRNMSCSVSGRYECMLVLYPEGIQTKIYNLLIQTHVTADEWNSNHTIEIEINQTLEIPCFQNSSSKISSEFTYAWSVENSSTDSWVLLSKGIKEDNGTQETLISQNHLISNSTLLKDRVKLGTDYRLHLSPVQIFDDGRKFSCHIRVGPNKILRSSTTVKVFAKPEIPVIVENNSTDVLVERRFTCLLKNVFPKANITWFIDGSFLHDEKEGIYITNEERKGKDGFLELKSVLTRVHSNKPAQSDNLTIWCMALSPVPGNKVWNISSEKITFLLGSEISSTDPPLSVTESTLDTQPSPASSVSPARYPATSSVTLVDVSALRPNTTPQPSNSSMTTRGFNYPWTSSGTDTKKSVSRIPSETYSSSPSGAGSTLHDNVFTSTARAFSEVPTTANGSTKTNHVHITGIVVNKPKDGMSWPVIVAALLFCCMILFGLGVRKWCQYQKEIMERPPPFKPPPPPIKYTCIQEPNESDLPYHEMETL
# [2] = biological target: CD112R (full length, expressed on transfected cells) (human) (UniProt Q6DKI7); experiment: flow cytometry on cells expressing the target, 20 nM
# [3] = biological target: T2, CD96 (expressed on cells) (UniProt P40200); experiment: as above
# T2 sequence (looked up): T1 sequence (looked up)
# [4] = biological target: T3, CD226 (human) (UniProt Q15762); experiment: flow cytometry on CD226-expressing cells
# T3 sequence: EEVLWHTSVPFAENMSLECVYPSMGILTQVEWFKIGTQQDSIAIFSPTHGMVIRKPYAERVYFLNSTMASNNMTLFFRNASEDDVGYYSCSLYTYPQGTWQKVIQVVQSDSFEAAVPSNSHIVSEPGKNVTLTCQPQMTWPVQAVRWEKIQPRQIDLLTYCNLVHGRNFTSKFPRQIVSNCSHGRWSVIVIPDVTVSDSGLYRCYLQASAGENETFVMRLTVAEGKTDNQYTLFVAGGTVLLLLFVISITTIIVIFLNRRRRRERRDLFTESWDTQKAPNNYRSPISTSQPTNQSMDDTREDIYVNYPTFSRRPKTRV
# [5] = biological target: T1, CD96; experiment: flow cytometry, cells
# [6] = biological target: T4, TIGIT (human) (UniProt Q495A1); experiment: flow cytometry, transfected cells
# T4 sequence: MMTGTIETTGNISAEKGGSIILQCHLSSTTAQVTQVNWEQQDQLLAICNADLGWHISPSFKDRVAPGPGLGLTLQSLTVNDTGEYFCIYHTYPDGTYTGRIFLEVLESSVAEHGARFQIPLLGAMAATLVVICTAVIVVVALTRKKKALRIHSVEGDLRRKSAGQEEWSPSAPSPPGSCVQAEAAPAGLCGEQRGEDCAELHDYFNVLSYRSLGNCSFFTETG
# [7] = biological target: T3, CD226 (human); experiment: flow cytometry, transfected cells
# [8] = biological target: T3, CD226 (human); experiment: flow cytometry, CD226-expressing cells
# [9] = biological target: T4, TIGIT (human); experiment: flow cytometry, TIGIT-expressing cells
# [10] = biological target: T1, CD96; experiment: flow cytometry, CD96-expressing cells
# Sequence of CD155 Wild type IgV-Fc (P15151 24-139 limits assumed): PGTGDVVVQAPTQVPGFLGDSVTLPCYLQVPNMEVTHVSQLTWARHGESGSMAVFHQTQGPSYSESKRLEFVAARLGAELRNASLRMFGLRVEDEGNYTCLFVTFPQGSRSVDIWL
# Sequence of CD112R (full length, expressed on transfected cells) (human) (Q6DKI7 whole entry): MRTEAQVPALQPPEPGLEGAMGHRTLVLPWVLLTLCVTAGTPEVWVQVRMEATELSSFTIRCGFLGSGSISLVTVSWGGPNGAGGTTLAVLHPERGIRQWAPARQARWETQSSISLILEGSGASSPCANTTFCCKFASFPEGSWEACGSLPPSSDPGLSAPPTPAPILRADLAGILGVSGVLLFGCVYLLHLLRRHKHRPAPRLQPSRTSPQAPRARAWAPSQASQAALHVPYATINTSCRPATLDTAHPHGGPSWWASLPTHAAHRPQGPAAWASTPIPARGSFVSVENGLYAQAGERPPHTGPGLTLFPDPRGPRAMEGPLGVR
substance,measurement,setting,value
CD112 ECD-Fc (from UniProt Q92692 32-360) (Fc fusion),MFI at 100 nM,[1],1100 MFI
"CD112 IgV R12W, Y33H, N47K, Q79R, S118Y Fc fusion (from UniProt Q92692 32-156)",MFI at 20 nM,[2],1120
same,MFI at 20 nM,[3],2640
"CD112 variant R12W, A46T, K66M, Q79R, N106I, T113A, S118F IgV-Fc (from UniProt Q92692 32-156) (Fc fusion)",MFI at 100 nM,[1],4060 MFI
"CD112 variant Y33H, A46T, Q79R, N106I, S118F IgV-Fc (from UniProt Q92692 32-156) (Fc fusion)",MFI at 100 nM,[4],15600 MFI
"CD112 variant Y33H, S118T IgV-Fc (from UniProt Q92692 32-156) (Fc fusion)",MFI at 100 nM,[4],17700 MFI
same,MFI at 100 nM,[1],5000 MFI
"CD155 A81V, L83P IgV-Fc (from UniProt P15151 24-139) (Fc fusion)",MFI,[5],2620
same,MFI,[6],2910
"CD155 P18L, L79V, F91S IgV-Fc (from UniProt P15151 24-139) (Fc fusion)",MFI,[5],3280
same,MFI,[7],5140
same,MFI,[6],4070
"CD155 P18S, F91P IgV-Fc (from UniProt P15151 24-139) (Fc fusion)",MFI,[5],2680
same,MFI,[6],3220
"CD155 P18S, F91S IgV-Fc (from UniProt P15151 24-139) (Fc fusion)",MFI,[5],147000
same,MFI,[7],409000
"CD155 P18T, F91S, R94H IgV-Fc (from UniProt P15151 24-139) (Fc fusion)",MFI,[5],2510
same,MFI,[7],3590
same,MFI,[6],2940
CD155 Wild type IgV-Fc (from UniProt P15151 24-139) (Fc fusion),MFI,[5],3080
same,MFI,[7],3720
same,MFI,[6],2720
"CD155 variant IgV-Fc A13R, D23Y, E37P, S42P, Q62Y, A81E (from UniProt P15151 24-139) (Fc fusion)",MFI at 100 nM,[8],11700 MFI
same,MFI at 100 nM,[9],4160 MFI
same,MFI at 100 nM,[10],5760 MFI
"CD155 variant IgV-Fc L79P, L104M (from UniProt P15151 24-139) (Fc fusion)",MFI at 100 nM,[8],8320 MFI
same,MFI at 100 nM,[9],3210 MFI
same,MFI at 100 nM,[10],2890 MFI
"CD155 variant IgV-Fc P18F, T26M, L44V, Q62K, L79P, F91S, L104M, G111D (from UniProt P15151 24-139) (Fc fusion)",MFI at 100 nM,[10],1630 MFI
"CD155 variant IgV-Fc P18H, S42G, T45I, S52T, G53R, S54H, V57L, H59E, T61S, S65D, E68G, L104N (Fc fusion)",MFI at 100 nM,[10],3700 MFI
"CD155 variant IgV-Fc P18L, E37S, Q62M, G80S, A81P, G99Y, S112N (from UniProt P15151 24-139) (Fc fusion)",MFI at 100 nM,[9],5900 MFI
same,MFI at 100 nM,[10],3340 MFI
"CD155 variant IgV-Fc P18S, A47G, L79P, F91S, L104M, T107A, R113W (from UniProt P15151 24-139) (Fc fusion)",MFI at 11.1 nM,[8],1190 MFI
"CD155 variant IgV-Fc P18S, L79P, L104M, T107M (from UniProt P15151 24-139) (Fc fusion)",MFI at 100 nM,[8],18300 MFI
same,MFI at 100 nM,[10],22800 MFI
"CD155 variant IgV-Fc P18S, S65W, S67A, M90V, V95A, L104Q, G111R (from UniProt P15151 24-139) (Fc fusion)",MFI at 100 nM,[10],2570 MFI
"CD155 variant IgV-Fc P18S, T45S, T61K, S65W, S67A, F91S, G111R (from UniProt P15151 24-139) (Fc fusion)",MFI at 100 nM,[8],2110 MFI
same,MFI at 100 nM,[9],125000 MFI
same,MFI at 100 nM,[10],2220 MFI
"CD155 variant IgV-Fc P18S, V41A, S42G, T45G, L104N (from UniProt P15151 24-139) (Fc fusion)",MFI at 100 nM,[8],11400 MFI
same,MFI at 100 nM,[9],3820 MFI
same,MFI at 100 nM,[10],3090 MFI
"CD155 variant IgV-Fc V9I, Q12K, P18F, S65A, S67V, L79P, L104T, G111R, S112I (from UniProt P15151 21-139) (Fc fusion)",MFI at 11.1 nM,[8],803 MFI
